Experimental data from patent publication US20250101126A1 (GO THERAPEUTICS, published 2025).

What was measured:
[1] = target: MUC1-Tn; test: BLI (Octet), apparent affinity; peptide on biosensor; error +/- 5.9 µM (r8c9)
[2] = target: T1, MUC4-Tn glycopeptide CTIPSTAMHTRSTAAPIPILP (SEQ ID NO:154) with O-linked GalNAc on the serine and threonine … (not fully specified; O-linked GalNAc on Ser 12 and Thr 13; N-terminal biotin (Table 6); C-terminal amide in the form described in the SPR/BLI methods); test: BLI (Octet), apparent affinity; peptide on biosensor; error +/- 0.251 nM at 95% confidence (r8c5)
T1 construct: Synthetic glycopeptide made by FMOC synthesis; also called MUC4 glycopeptide; Tn-glycosylated MUC4 peptide
T1 peptide: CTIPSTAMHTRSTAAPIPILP

[3] = target: T1, MUC4-Tn glycopeptide …; test: BLI (Octet), apparent affinity; peptide on biosensor; +/- error at 95% confidence; same value as Table 7
[4] = target: T1, MUC4-Tn glycopeptide …; test: SPR (Biacore); antibody immobilized, peptide as analyte
Source text: Antibody affinity assays can be carried out using surface plasmon resonance (e.g., using a Biacore system (Cytiva)). In a surface plasmon resonance assay, one or more antibodies can be immobilized onto a biosensor and presented with an analyte (e.g., the glyco-MUC4 peptide […]-amide (the amino acid portion of which is SEQ ID NO:154; bold and underlined residues indicate GalNAc glycosylation sites) or a negative control analyte such as un unglycosylated MUC4 peptide ([…]-amide (the amino acid portion of which is SEQ ID NO:155)). The antibodies are contacted with different concentrations of the analyte, for example concentrations of 2.5 nM, 7.4 nM, 22 nM, 66 nM and 200 nM. Affinity is measured using multi-cycle kinetics in triplicate for each analyte concentration, with 1 min association and 5 min dissociation. […] The affinity is determined by fitting the binding curve to a specific model: kinetic fit (1:1 model) or if applicable heterogenous ligand binding model.

[5] = target: T2, MUC4-Tn(T) peptide Biotin-CTIPSTAMHTRSTAAPIPILP (SEQ ID NO:198) (GalNAc on a threonine only (by the label Tn(T); the bold/underline marking of the site is lost in the text); N-terminal biotin); test: BLI (Octet), apparent affinity; peptide on biosensor; error +/- 66 µM (r12c7)
T2 construct: Singly glycosylated form of the MUC4 peptide
T2 peptide: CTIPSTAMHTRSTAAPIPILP

[6] = target: MUC1-Tn; test: BLI (Octet), apparent affinity; peptide on biosensor; error +/- 3.7 µM (r12c9)
[7] = target: T1, MUC4-Tn glycopeptide …; test: BLI (Octet), apparent affinity; peptide on biosensor; error +/- 10 nM (r12c5)
[8] = target: T1, MUC4-Tn glycopeptide …; test: BLI (Octet), apparent affinity; peptide on biosensor; error +/- 2.32 nM (r10c5)
[9] = target: MUC1-Tn; test: BLI (Octet), apparent affinity; peptide on biosensor; error +/- 7.6 µM (r10c9)
[10] = target: T2, MUC4-Tn(T) peptide …; test: BLI (Octet), apparent affinity; peptide on biosensor; error printed as 1 pM (r10c7)
[11] = target: T3, Tn-glycosylated MUC4 on cells (MUC4-Tn; COSMC-KO cells, cancer tissue) (UniProt Q99102 29-5412, limits assumed, truncated Tn O-glycans (GalNAc-alpha1-O-Ser/Thr), from knock-out of the COSMC chaperone or in cancer tissue); test: flow cytometry on T3M4 COSMC-KO (T3M4-M) cells
T3 construct: whole, on cells; also called Tn-MUC4; glyco-MUC4
Procedure: Adherent cells were dissociated with TrypLE select (Gibco) and washed from flask surface with cell culture media (RPMI w/L-glutamine, 1% PenStrep, & 10% FBS). Cells were washed several times by centrifugation at 300*g for 5 min at 4° C. followed by resuspension in PBS with 1% BSA (PBS/1% BSA). Cells were resuspended between 5×10⁵ cells/ml to 2×10⁶ cell/ml and then distributed into a 96 well U-bottom plate. Diluted commercial antibody (0.25-2 ug/ml), or purified humanized 2D5 candidates were added to T3M4 COSMC-KO cells and incubated for 1 hr on ice. Following several washes with PBS/1% BSA, cells were incubated for 30 min on ice with a 1:1600 dilution of AlexaFluor647 conjugated F(ab)₂ goat anti-human IgG Fcγ (JacksonImmunoResearch). Cells were washed again with PBS/1% BSA and then fixed in 1% formaldehyde in PBS/1% BSA. Cells were analysed on either a 2 or 4 laser Attune NXT flow cytometer. Data was processed in FlowJo Software.

[12] = target: T1, MUC4-Tn glycopeptide …; test: BLI (Octet), MUC4 glycopeptide on biosensor

B1: 2D5.2F6.2C11 (antibody, V domains shown)
VH: QVQLQQSDAELVKPGASVRISCKAYGYTFTDHAIHWVKQKPEQGLEWLGYISPGNDDIQYNAKFKGKATLTADKSSSTAYMQLNSLTSDDSAVYFCKRSMANSFDYWGQGTTLTVSS
VL: NIMLTQSPSSLAVSAGEKVTMSCKSSQSVLYSSDQKNYLAWYQQKPGQSPKLLIYWASTRESGVPDRFTGSGSGTDFTLTISNVQAEDLAVYYCHQYLSSYTFGGGTKLEIK
notes: Murine monoclonal antibody from a hybridoma (Balb/c mice immunized with the KLH-conjugated Tn-MUC4 glycopeptide); also called mAb 2D5
- Kd [1]: 2900 nM
- Kd [2]: 2 nM
- Kd [3]: 2 nM
- Kd [4]: 3.96 nM

B2: 15F3.2D11.1E6 (antibody, V domains shown)
VH: QVQLQQSDAELVEPGASVKISCKAYGYTFTDHAIHWVKQKPEQGLEWLGYISPGNDDIQYNAKFKGRATLTADKSSSTAYMQLNSLTSDDSAVYFCKRSMANSFDFWGQGTTLTVSS
VL: NIMLTQSPSSLAVSAGEKVTMSCKSSQSVLYSSDQKNYLAWYQQKPGQSPKLLIYWASTRESGVPDRFTGSGSGTDFTLTISNVRAEDLAVYYCHQYLSSYTFGGGTKLEIK
notes: Murine monoclonal antibody from a hybridoma; also called mAb 15F3
- Kd [5]: 79000 nM
- Kd [6]: 2500 nM
- Kd [7]: 50.2 nM
- Kd [4]: 3.56 nM

B3: 5B8.2A11.2C7 (antibody, V domains shown)
VH: QVQLQQSDAELVKPGASVKISCKASGYTFTDHAIHWVKQKPEQGLEWIGYFSPGNGDIKYNEKFKGKATLTADRSSSTANMHLNSLTSEDSAVYFCKRSMANYFDYWGQGTTLTVSS
VL: NIMMTQSPSSLVVSAGEKVTMSCKSSHSVLYSSNQKNYLAWYQQKPGQSPKLLIYWASTKNSGVPDRFTGSGSGTDFTLTISSVQAEDLAVYYCHQYLSSYTFGGGTKLEIK
notes: Murine monoclonal antibody from a hybridoma; also called mAb 5B8
- Kd [8]: 2.32 nM
- Kd [9]: 2800 nM
- Kd [10]: 560 nM
- Kd [4]: 3.93 nM

B4: 2D5-cAb Chimeric antibody (human Fc domain + murine variable domain) (antibody, V domains shown)
VH: QVQLQQSDAELVKPGASVRISCKAYGYTFTDHAIHWVKQKPEQGLEWLGYISPGNDDIQYNAKFKGKATLTADKSSSTAYMQLNSLTSDDSAVYFCKRSMANSFDYWGQGTTLTVSS
VL: NIMLTQSPSSLAVSAGEKVTMSCKSSQSVLYSSDQKNYLAWYQQKPGQSPKLLIYWASTRESGVPDRFTGSGSGTDFTLTISNVQAEDLAVYYCHQYLSSYTFGGGTKLEIK
- EC50 [11]: 0.0177 mg/L
- Kd [12]: 3.2 nM
